The data set deals with the molecule itself. Nature of the data set: SEC; purified TtHPF without ribosome on Superdex200 Increase 10/300 in buffer F (20 mM Hepes/KOH pH 7.5, 100 mM KCl, 10% v/v glycerol, 1 mM DTT); elution volume compared to standard proteins. In general terms: Size exclusion chromatography separates by hydrodynamic size, large species first.

B1: Thermus thermophilus hibernation-promoting factor (TtHPF) (natural protein, UniProt Q5SIS0 1-186, looked up)
chain: MNIYKLIGRNLEITDAIRDYVEKKLARLDRYQDGELMAKVVLSLAGSPHVEKKARAEIQVDLPGGLVRVEEEDADLYAAIDRAVDRLETQVKRFRERRYVGKRHSYQGPPPPEVRDLEALRKPEEEEGPRIVRVKRFEMKPMDPEEAAFQMEALGHSFFVFRNAKTDEINVIYRRKDGNYGLIEPA
notes: Hibernation-promoting factor TtHPF of Thermus thermophilus, UniProt Q5SIS0; gene amplified from genomic DNA with primers from the start codon to the stop codon; residues 2-122 (NTD and linker) and 129-185 (CTD) were modelled in the cryo-EM maps; The forward primer encodes a TEV site (ENLYFQG) directly before Met1, so a Gly probably remains at the N-terminus after TEV cleavage (surmised); The …
Regarding B1, the “stoichiometry N” value came out at 2.

The term stoichiometry N denotes a count of units in the complex or per binding partner.
